{"source": "the supplement of paper PMC6379048", "assay_in_all_cases": "Kd (EC50 corrected by depletion factor)", "key": {"DDX21": {"molecular_target": "T1, DDX21 (UniProt Q9NR30)", "T1 sequence": "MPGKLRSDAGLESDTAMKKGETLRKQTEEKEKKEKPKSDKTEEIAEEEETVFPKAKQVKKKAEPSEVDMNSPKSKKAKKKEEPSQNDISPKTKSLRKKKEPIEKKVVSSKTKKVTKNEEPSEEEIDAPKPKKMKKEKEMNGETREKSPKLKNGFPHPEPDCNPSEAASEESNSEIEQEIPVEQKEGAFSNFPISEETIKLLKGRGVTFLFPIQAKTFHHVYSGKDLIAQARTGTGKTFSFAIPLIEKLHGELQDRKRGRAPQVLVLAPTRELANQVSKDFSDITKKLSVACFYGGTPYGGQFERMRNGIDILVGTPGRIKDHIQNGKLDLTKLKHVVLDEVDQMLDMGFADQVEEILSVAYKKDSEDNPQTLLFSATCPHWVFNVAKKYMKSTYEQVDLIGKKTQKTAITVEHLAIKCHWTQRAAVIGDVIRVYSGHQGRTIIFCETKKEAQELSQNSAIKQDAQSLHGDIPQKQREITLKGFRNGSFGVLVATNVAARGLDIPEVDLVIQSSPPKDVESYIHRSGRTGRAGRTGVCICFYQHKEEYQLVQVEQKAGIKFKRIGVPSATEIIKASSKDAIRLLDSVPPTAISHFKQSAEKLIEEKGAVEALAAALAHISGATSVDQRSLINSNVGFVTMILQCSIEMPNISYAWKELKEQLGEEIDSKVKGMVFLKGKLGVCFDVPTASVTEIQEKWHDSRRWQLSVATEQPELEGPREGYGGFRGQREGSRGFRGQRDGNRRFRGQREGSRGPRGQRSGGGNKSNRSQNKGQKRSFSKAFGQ", "summary_of_the_method": "(§1)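 HEK293-FT lysate (2.5 mg protein/well) was pre-incubated 1 h at 4°C with free RNA oligos (0 nM to 30 μM), then 30 min at 4°C with the same 5′-amino-C6 oligos coupled to NHS-Sepharose beads. Bound proteins were quantified by label-free LC-MS/MS in three biological replicates and two independent experiments, and normalised to the water control. EC50 came from a four-parameter log-logistic fit; Kd is EC50 times a protein-dependent depletion factor.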"}, "MRPL1": {"molecular_target": "MRPL1 (UniProt Q9BYD6)", "summary_of_the_method": "as §1"}, "CPSF4": {"molecular_target": "CPSF4 (UniProt O95639)", "sequence (O95639 whole entry)": "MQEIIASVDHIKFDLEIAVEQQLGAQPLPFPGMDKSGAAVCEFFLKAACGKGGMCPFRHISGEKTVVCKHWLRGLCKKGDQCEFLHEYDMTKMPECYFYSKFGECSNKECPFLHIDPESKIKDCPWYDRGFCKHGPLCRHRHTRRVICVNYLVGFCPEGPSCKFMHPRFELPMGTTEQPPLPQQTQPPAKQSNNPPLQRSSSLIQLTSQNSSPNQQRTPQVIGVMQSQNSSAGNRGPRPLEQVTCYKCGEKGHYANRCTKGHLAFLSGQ", "summary_of_the_method": "as §1"}, "PTBP3": {"molecular_target": "PTBP3 (UniProt O95758)", "sequence (O95758 whole entry)": "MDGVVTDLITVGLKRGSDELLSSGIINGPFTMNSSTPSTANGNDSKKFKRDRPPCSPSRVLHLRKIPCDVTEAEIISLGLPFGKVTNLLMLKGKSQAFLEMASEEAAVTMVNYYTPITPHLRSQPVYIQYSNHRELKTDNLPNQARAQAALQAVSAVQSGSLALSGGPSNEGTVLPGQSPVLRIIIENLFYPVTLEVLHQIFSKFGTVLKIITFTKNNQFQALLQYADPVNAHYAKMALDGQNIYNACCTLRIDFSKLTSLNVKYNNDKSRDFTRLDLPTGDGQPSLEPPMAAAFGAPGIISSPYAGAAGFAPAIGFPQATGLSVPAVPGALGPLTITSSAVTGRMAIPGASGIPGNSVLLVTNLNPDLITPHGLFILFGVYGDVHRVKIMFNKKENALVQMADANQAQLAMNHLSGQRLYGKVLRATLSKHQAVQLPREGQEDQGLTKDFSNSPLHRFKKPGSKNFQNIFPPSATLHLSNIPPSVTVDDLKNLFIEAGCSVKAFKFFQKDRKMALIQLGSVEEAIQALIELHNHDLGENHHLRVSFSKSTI", "summary_of_the_method": "as §1"}, "DHX37": {"molecular_target": "T2, DHX37 (UniProt Q8IY37)", "T2 sequence": "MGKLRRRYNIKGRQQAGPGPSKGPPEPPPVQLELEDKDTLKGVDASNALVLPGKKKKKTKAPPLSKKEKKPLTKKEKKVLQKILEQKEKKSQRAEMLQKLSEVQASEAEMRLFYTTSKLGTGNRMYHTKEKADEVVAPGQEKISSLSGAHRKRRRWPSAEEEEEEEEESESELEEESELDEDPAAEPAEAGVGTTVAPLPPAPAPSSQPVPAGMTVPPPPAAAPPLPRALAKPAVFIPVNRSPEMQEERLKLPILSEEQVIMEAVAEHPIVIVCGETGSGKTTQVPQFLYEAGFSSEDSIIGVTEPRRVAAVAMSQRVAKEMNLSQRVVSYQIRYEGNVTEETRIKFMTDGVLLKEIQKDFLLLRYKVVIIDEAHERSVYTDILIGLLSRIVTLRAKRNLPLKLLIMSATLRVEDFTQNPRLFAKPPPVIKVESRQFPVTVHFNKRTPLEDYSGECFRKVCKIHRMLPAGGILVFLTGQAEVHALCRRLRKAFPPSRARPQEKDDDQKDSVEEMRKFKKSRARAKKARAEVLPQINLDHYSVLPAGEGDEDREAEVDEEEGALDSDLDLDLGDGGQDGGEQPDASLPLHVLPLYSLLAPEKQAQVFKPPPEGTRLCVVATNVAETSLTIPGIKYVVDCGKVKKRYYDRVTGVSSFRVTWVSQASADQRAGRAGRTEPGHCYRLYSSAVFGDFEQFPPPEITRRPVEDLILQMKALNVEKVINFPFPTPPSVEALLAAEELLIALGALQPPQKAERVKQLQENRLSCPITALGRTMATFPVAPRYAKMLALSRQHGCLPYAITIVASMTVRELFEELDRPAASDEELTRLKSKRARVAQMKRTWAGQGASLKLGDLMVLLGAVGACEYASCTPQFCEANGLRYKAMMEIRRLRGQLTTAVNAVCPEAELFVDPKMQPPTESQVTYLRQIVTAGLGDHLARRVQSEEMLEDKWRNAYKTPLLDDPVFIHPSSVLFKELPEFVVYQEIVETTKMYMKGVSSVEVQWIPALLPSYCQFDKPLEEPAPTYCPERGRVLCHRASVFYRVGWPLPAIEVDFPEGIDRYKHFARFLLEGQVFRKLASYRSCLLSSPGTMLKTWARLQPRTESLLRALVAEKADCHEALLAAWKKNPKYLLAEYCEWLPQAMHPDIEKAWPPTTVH", "summary_of_the_method": "as §1"}, "LSM6": {"molecular_target": "T3, LSM6 (UniProt P62312)", "T3 sequence": "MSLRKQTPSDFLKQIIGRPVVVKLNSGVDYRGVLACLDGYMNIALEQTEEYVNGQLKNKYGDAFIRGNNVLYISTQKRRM", "summary_of_the_method": "as §1"}}, "data": [{"sequence": "CUGUCCU", "values": [{"measurement": "Kd", "setting": "DDX21", "result": 44.3, "unit": "nM"}, {"measurement": "Kd", "setting": "MRPL1", "result": 80.4, "unit": "nM"}]}, {"sequence": "AAUAAA", "values": [{"measurement": "Kd", "setting": "CPSF4", "result": 5.95, "unit": "nM"}, {"measurement": "Kd", "setting": "PTBP3", "result": 1290, "unit": "nM"}]}, {"sequence": "UAUUUAU", "values": [{"measurement": "Kd", "setting": "DHX37", "result": 3370, "unit": "nM"}, {"measurement": "Kd", "setting": "LSM6", "result": 275, "unit": "nM"}]}]}
